Test results from publication PMC12237041.

T1: synthetic peptide mimicking the IgA1 hinge region, …-NH2 (human)
T1 sequence (peptide, C-terminal amide): VTVPSPVPSTPAR


How the values were obtained:
[1] = molecular target: T1, synthetic peptide mimicking the IgA1 hinge region, …-NH2 (human)
[2] = molecular target: IgA purified from human plasma (human); experiment: SEC; Superdex 200 10/300 GL; independent runs of plasma IgA, of inactive IgAse1–7 + E540A and of a preincubated mixture of both

Binder	cleavage of the hinge peptide after overnight incubation at 37 °C, MALDI-TOF mass spectrometry [1] [%]	Kd [2] [µM]
IgAse1–4 (enzyme) MASKPDIKVGDYVKMGVYNNASILWRCVSIDNNGPLMLADKIVDTLAYDAKTNDNSNSKSHSRSYKRDDYGSNYWKDSNMRSWLNSTAAEGKVDWLCGNPPKDGYVSGVGAYNEKAGFLNAFSKSEIAAMKTVTQRSLVSHPEYNKGIVDGDANSDLLYYTDISEAVANYDSSYFETTTEKVFLLDVKQANAVWKNLKGYYVAYNNDGMAWPYWLRTPVTDCNHDMRYISSSGQVGRYAPWYSDLGVRPAFYLDSEYFVTTSGSGSQSSPYIGSAPNKQEDDYTISEPAEDANPDWNVSTEQSIQLTLGPWYSNDGKYSNPTIPVYTIQKTRSDTENMVVVVCGEGYTKSQQGKFINDVKRLWQDAMKYEPYRSYADRFNVYALCTASESTFDNGGSTFFDVIVDKYNSPVISNNLHGSQWKNHIFERCIGPEFIEKIHDAHIKKKCDPNTIPSGSEYEPYYYVHDYIAQFAMVVNTKSDFGGAYNNREYGFHYFISPSDSYRASKTFAHEFGHGLLGLGDEYSNGYLLDDKELKSLNLSSVEDPEKIKWRQLLGFRNTYTCRNAYGSKMLVSSYECIMRDTNYQFCEVCRLQGFKRMSQLVKDVDLYVATPEVKEYTGAYSKPSDFTDLETSSYYNYTYNRNDRLLSGNSKSRFNTNMNGKKIELRTVIQNISDKNARQLKFKMWIKHSDGSVATDSSGNPLQTVQTFDIPVWNDKANFWPLGALDHIKSDFNSGLKSCSLIYQIPSDAQLKSGDTVAFQVLDENGNVLADDNTETQRYTTVSIQYKFEDGSEIPNTAGGTFTVPYGTKLDLTPAKTLYDYEFIKVDGLNKPIVSDGTVVTYYYKN	< 1	–
IgAse1–7 + E540A (domain or fragment) MASKPDIKVGDYVKMGVYNNASILWRCVSIDNNGPLMLADKIVDTLAYDAKTNDNSNSKSHSRSYKRDDYGSNYWKDSNMRSWLNSTAAEGKVDWLCGNPPKDGYVSGVGAYNEKAGFLNAFSKSEIAAMKTVTQRSLVSHPEYNKGIVDGDANSDLLYYTDISEAVANYDSSYFETTTEKVFLLDVKQANAVWKNLKGYYVAYNNDGMAWPYWLRTPVTDCNHDMRYISSSGQVGRYAPWYSDLGVRPAFYLDSEYFVTTSGSGSQSSPYIGSAPNKQEDDYTISEPAEDANPDWNVSTEQSIQLTLGPWYSNDGKYSNPTIPVYTIQKTRSDTENMVVVVCGEGYTKSQQGKFINDVKRLWQDAMKYEPYRSYADRFNVYALCTASESTFDNGGSTFFDVIVDKYNSPVISNNLHGSQWKNHIFERCIGPEFIEKIHDAHIKKKCDPNTIPSGSEYEPYYYVHDYIAQFAMVVNTKSDFGGAYNNREYGFHYFISPSDSYRASKTFAHAFGHGLLGLGDEYSNGYLLDDKELKSLNLSSVEDPEKIKWRQLLGFRNTYTCRNAYGSKMLVSSYECIMRDTNYQFCEVCRLQGFKRMSQLVKDVDLYVATPEVKEYTGAYSKPSDFTDLETSSYYNYTYNRNDRLLSGNSKSRFNTNMNGKKIELRTVIQNISDKNARQLKFKMWIKHSDGSVATDSSGNPLQTVQTFDIPVWNDKANFWPLGALDHIKSDFNSGLKSCSLIYQIPSDAQLKSGDTVAFQVLDENGNVLADDNTETQRYTTVSIQYKFEDGSEIPNTAGGTFTVPYGTKLDLTPAKTLYDYEFIKVDGLNKPIVSDGTVVTYYYKNKNEEHTHNLTLVAAKAATCTTAGNSAYYTCDGCDKWFADATGSVEITDKTSVKIPAPGHTAGTEWKSDDTNHWHECTVAGCGVIIESTKSAHTAGEWIVDTPATATTAGTKHKECTVCHRVLETQPIPSTGTELKIIAGDNQIYNKASGSDVTITCNGDFAKFTGIKVDGSVVDSSNYTAVSGSTVLTLKASYLGTLTDGSHTITFVYTDGEANANLTVRTAGSGHIHDYGTEWKSNADNHWHECNCGDKKDEAAHSFKWVVDKEATATKKGSKHEECKICGYKRSAVEI	–	> 10
